In the supplement of paper PMC10567573:

B1: HDAC6 (parent)
chain: DLMETTQYMNEGELRVLADTYDSV

Variants of: B1
Experiment: protein stability index of a GFP-peptide fusion (GPS, HEK-293T) (PSI 1-6); higher = more stable
Conditions: c terminus: a fixed tail appended
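Also: lentivirally expressed fusions sorted by FACS into six bins by GFP to DsRed ratio, PSI derived from sequencing read proportions per bin multiplied by bin number.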

Protein stability index of substitutions, site by site:
N10: A 1.98; P 4.49; G 3.14; M 4.08; D 3.95; F 1.05; R 1.75; C 1.88; Q 2.07
T5: S 1.96; V 1.5; C 2.38; H 1.89; F 2.03; W 1.61; D 4.43; Y 1.38; R 2.56; L 1.39; I 2.67; E 2.54; P 1.72; M 1.71; Q 1.99; K 2.9; G 3.72; N 2.32
T6: R 2.24; A 1.75; K 1.02; E 2.88; P 2.3; F 1.44; H 2.29; W 1.73; G 3.57; M 1.63; V 1.46; C 2.5; Q 1.94; S 1.56; N 2.42; Y 1.66
Y8: G 4.5; L 4.27; D 4.62; R 3.66; S 5.09; I 4.19; A 3.88; W 1.89; Q 4.22; T 4.36; F 1.65; N 4.67; K 4.56; P 5.51; M 4.29; C 4.07; E 4.21; H 4.78
M3: I 2.13; Q 3.29; V 2.2; E 3.74; S 3.48; Y 2.74; T 3.15; K 4.13; A 3.05; P 4.65; C 1.69; W 2; H 3.91; D 4.6; L 1.91; G 3.84; F 2.22; N 4.55; R 3.77
Q7: L 2.12; K 2.12; V 1.67; Y 2.52; R 1.14; H 1.14; T 2.37; A 1.53; P 3.69; D 2.35; N 2.12; G 2.05; S 2.02; E 1.97
M9: G 4.71; K 4.24; T 4.82; L 3.84; P 4.55; A 4.57; W 3.37; C 4.25; E 4.61; F 3.44; H 4.55; Y 4.31; I 4.14; S 4.68; D 4.95; N 4.12; V 3.6; R 4.28; Q 4.92
L2: P 4.8; Q 4.68; W 3.31; D 5.2; A 2.33; R 4.52; V 1.62; I 1.55; T 4.52; F 3.49; G 3.22; H 5.04; Y 3.88; E 4.57; M 3.77; N 4.32; C 3.12; K 4.96
E4: R 3.36; C 1.74; D 2.52; K 2.09; H 2.18; T 3; I 1.11; Q 3.94; N 1.98; S 1.78; Y 1.51; F 1.48; V 1.83; A 2.03; W 1.5; M 1.31; G 1.7; P 2.23
D1: Y 2.04; Q 2.25; A 1.77; R 3.01; L 2.05; W 1.55; F 2.46; V 1.25; C 2.48; I 3.02; P 4.29; M 1.54; N 2.18; H 1.53; E 2.22; K 2.28; T 2.27; G 3.06
